# Reference: PMC3267324 (Molecular Cell, 2011)
# T1: GST-tagged full-length PARI (human, UniProt Q9NWS1 1-579)
# T1 sequence (looked up): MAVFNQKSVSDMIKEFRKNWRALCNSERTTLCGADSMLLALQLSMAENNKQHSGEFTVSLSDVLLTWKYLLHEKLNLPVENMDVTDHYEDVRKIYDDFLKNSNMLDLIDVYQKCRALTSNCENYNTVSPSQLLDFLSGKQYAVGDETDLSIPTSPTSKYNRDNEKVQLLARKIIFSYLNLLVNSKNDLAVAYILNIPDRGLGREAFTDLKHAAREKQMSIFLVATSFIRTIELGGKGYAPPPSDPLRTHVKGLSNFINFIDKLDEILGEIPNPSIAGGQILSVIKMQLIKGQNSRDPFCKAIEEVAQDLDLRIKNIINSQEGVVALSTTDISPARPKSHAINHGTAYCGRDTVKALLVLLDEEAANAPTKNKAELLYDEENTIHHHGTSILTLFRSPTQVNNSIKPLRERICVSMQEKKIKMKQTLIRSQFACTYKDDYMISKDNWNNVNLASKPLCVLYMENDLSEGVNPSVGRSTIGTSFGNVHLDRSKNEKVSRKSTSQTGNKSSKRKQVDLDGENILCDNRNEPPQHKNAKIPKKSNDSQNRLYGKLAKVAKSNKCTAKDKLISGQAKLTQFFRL
# T2: Recombinant Flag-tagged PARI purified from insect cells (human, UniProt Q9NWS1 1-579)
# T2 sequence (looked up): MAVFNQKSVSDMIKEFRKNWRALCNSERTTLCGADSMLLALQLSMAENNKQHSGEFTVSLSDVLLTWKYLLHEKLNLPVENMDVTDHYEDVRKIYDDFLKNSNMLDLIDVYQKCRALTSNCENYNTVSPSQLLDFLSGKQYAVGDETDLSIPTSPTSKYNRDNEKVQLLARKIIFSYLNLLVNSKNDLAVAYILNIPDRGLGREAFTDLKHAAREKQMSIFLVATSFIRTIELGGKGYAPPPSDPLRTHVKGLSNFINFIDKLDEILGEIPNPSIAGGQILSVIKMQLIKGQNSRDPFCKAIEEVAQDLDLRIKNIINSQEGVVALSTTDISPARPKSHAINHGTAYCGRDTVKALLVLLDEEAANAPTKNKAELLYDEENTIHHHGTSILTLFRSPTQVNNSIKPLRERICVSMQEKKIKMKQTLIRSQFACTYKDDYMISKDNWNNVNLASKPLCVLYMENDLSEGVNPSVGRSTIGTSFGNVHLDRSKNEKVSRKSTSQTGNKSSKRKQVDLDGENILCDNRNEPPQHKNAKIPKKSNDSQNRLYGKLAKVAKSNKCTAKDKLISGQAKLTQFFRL
# Tests used:
# [1] = biological target: T1, GST-tagged full-length PARI; assay: pull-down
# [2] = biological target: T2, Recombinant Flag-tagged PARI purified …; assay: pull-down
binding result [1],binding result [2],Binder
binds,–,"Recombinant human RAD51 expressed and purified from bacteria (natural protein, UniProt Q06609 1-339, looked up) MAMQMQLEANADTSVEEESFGPQPISRLEQCGINANDVKKLEEAGFHTVEAVAYAPKKELINIKGISEAKADKILAEAAKLVPMGFTTATEFHQRRSEIIQITTGSKELDKLLQGGIETGSITEMFGEFRTGKTQICHTLAVTCQLPIDRGGGEGKAMYIDTEGTFRPERLLAVAERYGLSGSDVLDNVAYARAFNTDHQTQLLYQASAMMVESRYALLIVDSATALYRTDYSGRGELSARQMHLARFLRMLLRLADEFGVAVVITNQVVAQVDGAAMFAADPKKPIGGNIIAHASTTRLYLRKGRGETRICKIYDSPCLPEAEAMFAINADGVGDAKD"
–,binds,"GST-tagged human RAD51 (natural protein, UniProt Q06609 1-339, looked up) MAMQMQLEANADTSVEEESFGPQPISRLEQCGINANDVKKLEEAGFHTVEAVAYAPKKELINIKGISEAKADKILAEAAKLVPMGFTTATEFHQRRSEIIQITTGSKELDKLLQGGIETGSITEMFGEFRTGKTQICHTLAVTCQLPIDRGGGEGKAMYIDTEGTFRPERLLAVAERYGLSGSDVLDNVAYARAFNTDHQTQLLYQASAMMVESRYALLIVDSATALYRTDYSGRGELSARQMHLARFLRMLLRLADEFGVAVVITNQVVAQVDGAAMFAADPKKPIGGNIIAHASTTRLYLRKGRGETRICKIYDSPCLPEAEAMFAINADGVGDAKD"
